Laboratory results from patent US20040072159A1, “Bzip type transcription factors regulating the expression of rice storage protein” (published 2004).

T1: Opaque2 (Zea mays, UniProt P12959 P12959:1-453)
T1 sequence: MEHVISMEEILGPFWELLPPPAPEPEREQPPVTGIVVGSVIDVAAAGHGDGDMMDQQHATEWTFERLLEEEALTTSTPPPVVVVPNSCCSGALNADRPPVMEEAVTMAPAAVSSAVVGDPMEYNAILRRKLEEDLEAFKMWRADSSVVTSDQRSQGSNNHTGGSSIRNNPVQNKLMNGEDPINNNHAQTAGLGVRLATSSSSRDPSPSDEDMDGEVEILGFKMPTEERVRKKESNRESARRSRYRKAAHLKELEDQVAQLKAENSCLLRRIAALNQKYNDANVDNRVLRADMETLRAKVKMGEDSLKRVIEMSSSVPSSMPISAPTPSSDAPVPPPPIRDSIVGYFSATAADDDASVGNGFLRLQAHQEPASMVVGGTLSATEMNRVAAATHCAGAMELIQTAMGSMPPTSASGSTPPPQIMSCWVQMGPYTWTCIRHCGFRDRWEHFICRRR

T2: RISBZ1 (Oryza sativa, UniProt Q6ZLB0 SEQ:1-436)
T2 sequence: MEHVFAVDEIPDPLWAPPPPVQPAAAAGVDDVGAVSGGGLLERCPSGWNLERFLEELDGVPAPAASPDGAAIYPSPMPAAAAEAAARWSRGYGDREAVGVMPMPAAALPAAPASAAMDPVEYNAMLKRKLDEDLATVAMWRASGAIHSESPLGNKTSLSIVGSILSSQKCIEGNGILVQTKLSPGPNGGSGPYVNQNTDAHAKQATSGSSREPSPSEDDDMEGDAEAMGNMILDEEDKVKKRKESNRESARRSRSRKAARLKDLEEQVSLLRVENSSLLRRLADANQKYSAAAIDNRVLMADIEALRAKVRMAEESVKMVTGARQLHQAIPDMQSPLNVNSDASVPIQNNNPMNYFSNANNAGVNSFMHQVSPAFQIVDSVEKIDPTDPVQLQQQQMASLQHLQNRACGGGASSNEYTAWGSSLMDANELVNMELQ

B1: full-length RISBZ1 protein (other)
chain: T2 sequence
notes: Untagged full-length protein translated in vitro from pET8c (TNT coupled wheat germ extract); the crude extract was used in the gel shift assay; also called rice seed b-Zipper 1
B2: 21-bp GCN4 reporter (dsDNA)
DNA 1: GTTTGTCATGGCTGAGTCATG
DNA 2: CATGACTCAGCCATGACAAAC

Columns and labels:
[1] = biological target: the molecule itself; experiment: gel shift assay of the Examples
Opaque2 = biological target: T1, Opaque2; experiment: cell_activity; 1x21-bp reporter; 5x21-bp 114.7-fold
Description: (§1) In addition, reporter plasmids, into which the GUS gene, and one or three repeat(s) of the 12-bp GCN4 motif or one or five repeat(s) of the 21-bp GCN4 motif were inserted, were constructed. For negative control experiments, a reporter plasmid comprising four repeats of a mutant 12-bp GCN4 motif and the GUS reporter gene was used. The mutant 12-bp GCN4 motif has a mutation in the target sequence that is recognized by the RISBZ1 and O2. These plasmid constructs were introduced alone or in combination with other reporter or effector plasmid into rice protoplast cells prepared from its callus culture, and the GUS activity was assayed. When the reporter plasmid or effector plasmid was introduced alone into the protoplast, the GUS activity was detected at a low level. […] Even in the presence of these effector plasmids, the transcriptional activity of the GUS gene downstream of the mutant 12-bp GCN4 motif was the same level as that of background. […] The transcriptional activity of the reporter gene induced by the RISBZ1 gene product was slightly higher than that induced by the O2 gene product. […] 1 to 12 copies of 21-bp GCN motif were assayed, and the transcriptional activity was enhanced proportionately up to 9 copies. […]

RISBZ1 = biological target: T2, RISBZ1; experiment: cell_activity; 1x21-bp reporter; 5x21-bp 127.1-fold
Description: as §1

| Binder | binding result [1] | activity (Opaque2) | activity (RISBZ1) |
| --- | --- | --- | --- |
| B1 | binds | – | – |
| B2 | – | 37.9 fold | 43.9 fold |
